Consider eleven proteins from patent US20070134660.

For the data set, the target named is taxol-stabilized microtubules.

B1: KIF14 motor domain V354-D710 (SEQ ID NO:7) (protein)
chain: MVENSQVTVAVRVRPFTKREKIEKASQVVFMSGKEITVEHPDTKQVYNFIYDVSFWSFDECHPHYASQTTVYEKLAAPLLERAFEGFNTCLFAYGQTGSGKSYTMMGFSEEPGIIPRFCEDLFSQVARKQTQEVSYHIEMSFFEVYNEKIHDLLVCKDENGQRKQPLRVREHPVYGPYVEALSMNIVSSYADIQSWLELGNKQRATAATGMNDKSSRSHSVFTLVMTQTKTEFVEGEEHDHRITSRINLIDLAGSERCSTAHTNGDRLKEGVSINKSLLTLGKVISALSEQANQRSVFIPYRESVLTWLLKESLGGNSKTAMIATISPAASNIEETLSTLRYANQARLIVNIAKVNEDLEHHHHHHHHHHHH
B1 returned a k(obs) (min-1) at MT 0 micromolar of 0 min⁻¹, a k(obs) (min-1) at MT 0.25 micromolar of 0.39 min⁻¹, a k(obs) (min-1) at MT 0.5 micromolar of 1.07 min⁻¹ and a k(obs) (min-1) at MT 1 micromolar of 1.87 min⁻¹. Also, the k(obs) (min-1) at MT 2.5 micromolar is 5.79 min⁻¹, the k(obs) (min-1) at MT 5 micromolar turned out to be 10.2 min⁻¹ and the “microtubule-dependent ATP hydrolysis activity” value was “All of the KIF14 MD proteins showed microtubule-dependent ATP hydrolysis activity”.

B2: hu_MKLP-1 (1-433H) motor domain (SEQ ID NO:20) (protein)
chain: MARAKTPRKPTVKKGSQTNLKDPVGVYCRVRPLGFPDQECCIEVINNTTVQLHTPEGYRLNRNGDYKETQYSFKQVFGTHTTQKELFDVVANPLVNDLIHGKNGLLFTYGVTGSGKTHTMTGSPGEGGLLPRCLDMIFNSIGSFQAKRYVFKSNDRNSMDIQCEVDALLERQKREAMPNPKTSSSKRQVDPEFADMITVQEFCKAEEVDEDSVYGVFVSYIEIYNNYIYDLLEEVPFDPIKPKPPQSKLLREDKNHNMYVAGCTEVEVKSTEEAFEVFWRGQKKRRIANTHLNRESSRSHSVFNIKLVQAPLDADGDNVLQEKEQITISQLSLVDLAGSERTNRTRAEGNRLREAGNINQSLMTLRTCMDVLRENQMYGTNKMVPYRDSKLTHLFKNYFDGEGKVRMIVCVNPKAEDYEENLQVMRFAEVTQEVDKLAAALEHHHHHH
Turning to B2, the K1/2 (MT) was 0.24 µM.

B3: hu_KIF3A (1-350H) motor domain (SEQ ID NO:16) (protein)
chain: MPINKSEKPESCDNVKVVVRCRPLNEREKSMCYKQAVSVDEMRGTITVHKTDSSNEPPKTFTFDTVFGPESKQLDVYNLTARPIIDSVLEGYNGTIFAYGQTGTGKTFTMEGVRAIPELRGIIPNSFAHIFGHIAKAEGDTRFLVRVSYLEIYNEEVRDLLGKDQTQRLEVKERPDVGVYIKDLSAYVVNNADDMDRIMTLGHKNRSVGATNMNEHSSRSHAIFTITIECSEKGIDGNMHVRMGKLHLVDLAGSERQAKTGATGQRLKEATKINLSLSTLGNVISALVDGKSTHVPYRNSKLTRLLQDSLGGNSKTMMCANIGPADYNYDETISTLRYANRAKNIKNKARVDKLAAALEHHHHHH
B3 registered a K1/2 (MT) of 0.17 µM.

B4: hu_KIF1B (1-350H) motor domain (SEQ ID NO:21) (protein)
chain: MSGASVKVAVRVRPFNSRETSKESKCIIQMQGNSTSIINPKNPKEAPKSFSFDYSYWSHTSPEDPCFASQNRVYNDIGKEMLLHAFEGYNVCIFAYGQTGAGKSYTMMGKQEESQAGIIPQLCEELFEKINDNCNEEMSYSVEVSYMEIYCERVRDLLNPKNKGNLRVREHPLLGPYVEDLSKLAVTSYTDIADLMDAGNKARTVAATNMNETSSRSHAVFTIVFTQKKHDNETNLSTEKVSKISLVDLAGSERADSTGAKGTRLKEGANINKSLTTLGKVISALAEVDNCTSKSKKKKKTDFIPYRDSVLTWLLRENLGGNSRTAMVAALSPADINYDETLSTLRYADRVDKLAAALEHHHHHH
B4: the K1/2 (MT) turned out to be 0.035 µM.

B5: hu_nKHC (1-340H) motor domain (SEQ ID NO:18) (protein)
chain: MAETNNECSIKVLCRFRPLNQAEILRGDKFIPIFQGDDSVVIGGKPYVFDRVFPPNTTQEQVYHACAMQIVKDVLAGYNGTIFAYGQTSSGKTHTMEGKLHDPQLMGIIPRIARDIFNHIYSMDENLEFHIKVSYFEIYLDKIRDLLDVTKTNLSVHEDKNRVPFVKGCTERFVSSPEEILDVIDEGKSNRHVAVTNMNEHSSRSHSIFLINIKQENMETEQKLSGKLYLVDLAGSEKVSKTGAEGAVLDEAKNINKSLSALGNVISALAEGTKSYVPYRDSKMTRILQDSLGGNCRTTMFICCSPSSYNDAETKSTLMFGQRAKTIKNTASVNLELTAEVDKLAAALEHHHHHH
The protein B5 came in with a K1/2 (MT) of 1.1 µM.

B6: KIF14 motor domain V354-K720 (SEQ ID NO:6) (protein)
chain: MVENSQVTVAVRVRPFTKREKIEKASQVVFMSGKEITVEHPDTKQVYNFIYDVSFWSFDECHPHYASQTTVYEKLAAPLLERAFEGFNTCLFAYGQTGSGKSYTMMGFSEEPGIIPRFCEDLFSQVARKQTQEVSYHIEMSFFEVYNEKIHDLLVCKDENGQRKQPLRVREHPVYGPYVEALSMNIVSSYADIQSWLELGNKQRATAATGMNDKSSRSHSVFTLVMTQTKTEFVEGEEHDHRITSRINLIDLAGSERCSTAHTNGDRLKEGVSINKSLLTLGKVISALSEQANQRSVFIPYRESVLTWLLKESLGGNSKTAMIATISPAASNIEETLSTLRYANQARLIVNIAKVNEDMNAKLIRELKLEHHHHHHHHHHHH
The protein B6 came in with a k(obs) (min-1) at MT 0 micromolar of 0 min⁻¹, a k(obs) (min-1) at MT 0.25 micromolar of 0.73 min⁻¹, a k(obs) (min-1) at MT 0.5 micromolar of 1.49 min⁻¹ and a k(obs) (min-1) at MT 1 micromolar of 4.12 min⁻¹. Also, the k(obs) (min-1) at MT 2.5 micromolar was determined as 9.29 min⁻¹, the k(obs) (min-1) at MT 5 micromolar was found to be 18.3 min⁻¹ and the “microtubule-dependent ATP hydrolysis activity” value is listed as “All of the KIF14 MD proteins showed microtubule-dependent ATP hydrolysis activity”.

B7: hu-KSP (1-367H) motor domain (SEQ ID NO:15) (protein)
chain: MASQPNSSAKKKEEKGKNIQVVVRCRPFNLAERKASAHSIVECDPVRKEVSVRTGGLADKSSRKTYTFDMVFGASTKQIDVYRSVVCPILDEVIMGYNCTIFAYGQTGTGKTFTMEGERSPNEEYTWEEDPLAGIIPRTLHQIFEKLTDNGTEFSVKVSLLEIYNEELFDLLNPSSDVSERLQMFDDPRNKRGVIIKGLEEITVHNKDEVYQILEKGAAKRTTAATLMNAYSSRSHSVFSVTIHMKETTIDGEELVKIGKLNLVDLAGSENIGRSGAVDKRAREAGNINQSLLTLGRVITALVERTPHVPYRESKLTRILQDSLGGRTRTSIIATISPASLNLEETLSTLEYAHRAKNILNKPEVNQHHHHHH
On to B7, for which the K1/2 (MT) is 0.3 µM.

B8: KIF14 motor domain V342-K720 (SEQ ID NO:4) (protein)
chain: MVQNTSAGKDPLKVENSQVTVAVRVRPFTKREKIEKASQVVFMSGKEITVEHPDTKQVYNFIYDVSFWSFDECHPHYASQTTVYEKLAAPLLERAFEGFNTCLFAYGQTGSGKSYTMMGFSEEPGIIPRFCEDLFSQVARKQTQEVSYHIEMSFFEVYNEKIHDLLVCKDENGQRKQPLRVREHPVYGPYVEALSMNIVSSYADIQSWLELGNKQRATAATGMNDKSSRSHSVFTLVMTQTKTEFVEGEEHDHRITSRINLIDLAGSERCSTAHTNGDRLKEGVSINKSLLTLGKVISALSEQANQRSVFIPYRESVLTWLLKESLGGNSKTAMIATISPAASNIEETLSTLRYANQARLIVNIAKVNEDMNAKLIRELKLEHHHHHHHHHHHH
Consider B8, for which the K1/2 (MT) stood at 10.6 µM, the “Km (Michaelis-Menten fit of microtubule utilization)” value is reported as “a Km of 2.6+/-1.1 (s.d.)”, the k(obs) (min-1) at MT 0 micromolar turned out to be 0 min⁻¹ and the k(obs) (min-1) at MT 0.25 micromolar stood at 0.36 min⁻¹. The k(obs) (min-1) at MT 0.5 micromolar stood at 1.57 min⁻¹, the k(obs) (min-1) at MT 1 micromolar was 2.79 min⁻¹, the k(obs) (min-1) at MT 2.5 micromolar came out at 9.1 min⁻¹ and the k(obs) (min-1) at MT 5 micromolar was 13.2 min⁻¹. Also, the “kcat (Michaelis-Menten fit of microtubule utilization)” value is listed as “a kcat of 21.3+/-3.5 (s.d.)”; the “kcat/Km under optimized conditions (MES, pH 6.0, 40 mM KCl)” value is “compared to 13.2 under optimized conditions (MES, pH 6.0,40 mM KCl)”; the “kcat/Km under unoptimized conditions (K-PIPES, pH 6.7, 90 mM KCl)” value is on record as “the kcat/Km for the V342-K720 motor domain (SEQ ID NO:4) under unoptimized conditions (K-PIPES, pH 6.7, 90 mM KCl) was 224”; the “microtubule-dependent ATP hydrolysis activity” value is “All of the KIF14 MD proteins showed microtubule-dependent ATP hydrolysis activity”.

B9: KIF14 motor domain V342-D710 (SEQ ID NO:5) (protein)
chain: MVQNTSAGKDPLKVENSQVTVAVRVRPFTKREKIEKASQVVFMSGKEITVEHPDTKQVYNFIYDVSFWSFDECHPHYASQTTVYEKLAAPLLERAFEGFNTCLFAYGQTGSGKSYTMMGFSEEPGIIPRFCEDLFSQVARKQTQEVSYHIEMSFFEVYNEKIHDLLVCKDENGQRKQPLRVREHPVYGPYVEALSMNIVSSYADIQSWLELGNKQRATAATGMNDKSSRSHSVFTLVMTQTKTEFVEGEEHDHRITSRINLIDLAGSERCSTAHTNGDRLKEGVSINKSLLTLGKVISALSEQANQRSVFIPYRESVLTWLLKESLGGNSKTAMIATISPAASNIEETLSTLRYANQARLIVNIAKVNEDLEHHHHHHHHHHHH
On to B9, for which the k(obs) (min-1) at MT 0 micromolar is 0 min⁻¹, the k(obs) (min-1) at MT 0.25 micromolar amounted to 0.03 min⁻¹, the k(obs) (min-1) at MT 0.5 micromolar came out at 0.73 min⁻¹ and the k(obs) (min-1) at MT 1 micromolar is 0.79 min⁻¹. Besides, the k(obs) (min-1) at MT 2.5 micromolar was 3.02 min⁻¹, the k(obs) (min-1) at MT 5 micromolar stood at 5.91 min⁻¹ and the “microtubule-dependent ATP hydrolysis activity” value is on record as “All of the KIF14 MD proteins showed microtubule-dependent ATP hydrolysis activity”.

B10: hu_CENP-E (1-340H) motor domain (SEQ ID NO:19) (protein)
chain: MAEEGAVAVCVRVRPLNSREESLGETAQVYWKTDNNVIYQVDGSKSFNFDRVFHGNETTKNVYEEIAAPIIDSAIQGYNGTIFAYGQTASGKTYTMMGSEDHLGVIPRAIHDIFQKIKKFPDREFLLRVSYMEIYNETITDLLCGTQKMKPLIIREDVNRNVYVADLTEEVVYTSEMALKWITKGEKSRHYGETKMNQRSSRSHTIFRMILESREKGEPSNCEGSVKVSHLNLVDLAGSERAAQTGAAGVRLKEGCNINRSLFILGQVIKKLSDGQVGGFINYRDSKLTRILQNSLGGNAKTRIICTITPVSFDETLTALQFASTAKYMKNTPYVNEVSTVDKLAAALEHHHHHH
In turn, B10 gave a K1/2 (MT) of 1.6 µM.

B11: hu_uKHC (1-337H) motor domain (SEQ ID NO:17) (protein)
chain: MADLAECNIKVMCRFRPLNESEVNRGDKYIAKFQGEDTVVIASKPYAFDRVFQSSTSQEQVYNDCAKKIVKDVLEGYNGTIFAYGQTSSGKTHTMEGKLHDPEGMGIIPRIVQDIFNYIYSMDENLEFHIKVSYFEIYLDKIRDLLDVSKTNLSVHEDKNRVPYVKGCTERFVCSPDEVMDTIDEGKSNRHVAVTNMNEHSSRSHSIFLINVKQENTQTEQKLSGKLYLVDLAGSEKVSKTGAEGAVLDEAKNINKSLSALGNVISALAEGSTYVPYRDSKMTRILQDSLGGNCRTTIVICCSPSSYNESETKSTLLFGQRAKTIKNTVCVNVELTAVDKLAAALEHHHHHH
As for B11, the K1/2 (MT) stood at 0.34 µM.
